Experimental data taken from US5997865.

Biological target: c-kit (mouse) (UniProt P05532)

expansion in cell number after 7 days of coculture on 7-4 stroma (AA4+ Kit+ Flk-2+ cells) (not stated (cell number, Table 2)): 210
Substance: kit ligand
